# Assay results published in US20250049930A1 (CEDARS SINAI MEDICAL CENTER, published 2025).
# Primed or numbered codes have the meaning given here. PEG4′ = polyethylene glycol linker with 4 oxyethylene units
# T1: cereblon (E3 ubiquitin ligase)
# T1 chain: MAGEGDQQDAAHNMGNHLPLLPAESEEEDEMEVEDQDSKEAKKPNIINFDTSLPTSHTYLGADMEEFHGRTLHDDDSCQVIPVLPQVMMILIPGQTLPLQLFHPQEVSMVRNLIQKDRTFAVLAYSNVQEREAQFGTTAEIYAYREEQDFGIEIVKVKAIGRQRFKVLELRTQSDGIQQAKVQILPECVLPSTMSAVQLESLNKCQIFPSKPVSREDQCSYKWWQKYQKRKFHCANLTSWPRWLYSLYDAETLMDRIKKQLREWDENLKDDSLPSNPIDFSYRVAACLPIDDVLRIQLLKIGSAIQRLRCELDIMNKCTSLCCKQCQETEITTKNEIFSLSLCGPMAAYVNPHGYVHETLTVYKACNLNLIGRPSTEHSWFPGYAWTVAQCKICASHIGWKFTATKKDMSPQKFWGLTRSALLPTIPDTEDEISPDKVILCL
# Tests used:
# [1] = target: T1, cereblon (E3 ubiquitin ligase); experiment: SPR imaging (PlexArray HT), cereblon printed on chip; ternary complex of cereblon, FoxP3 and P-FoxP3 (recombinant FoxP3 present)
# [2] = target: T1, cereblon (E3 ubiquitin ligase); experiment: SPR imaging (PlexArray HT), cereblon printed on chip; binary complex of cereblon and PF
binder,measurement,setting,value
{pomalidomide-PEG4′}-RDFQSFRKMWPFFAM-OH (Conjugate of the P60 peptide with the small molecule pomalidomide; also called P-FoxP3; PROTAC for FoxP3) [Proteolysis-targeting chimera (PROTAC) targeting FoxP3 (Pomalidomide-PEG4-RDFQSFRKMWPFFAM)],Kd,[1],434 nM
same,Kd,[2],987 nM
